The assay has as its target PRRSV-2 nucleocapsid (N) protein with Myc tag. Nature of the assay: ELISA. As to conditions: mutated N-His as coating antigen; N-Myc added; parent: est. 0.97; read off a plot. A general note: ELISA stands for enzyme-linked immunosorbent assay.
With “PRRSV-2 nucleocapsid (N) protein with His tag S105A”, the response is 0.28 OD450nm.
In the case of “PRRSV-2 nucleocapsid (N) protein with His tag Q109A”, the response stood at 0.7 OD450nm.
As for “PRRSV-2 nucleocapsid (N) protein with His tag T108A”, the figure is 1 OD450nm; as for “PRRSV-2 nucleocapsid (N) protein with His tag S105A; T108A; Q109A”, 0.2 OD450nm.

These data come from paper PMC10804987.
